According to patent US20260224761A1, “DUAL LABELLED COMPOUNDS TARGETING THE PROSTATE SPECIFIC MEMBRANE ANTIGEN” (priority 2023, published 2026):
Like-named read-outs stand apart in the source and are kept apart here. Values belong to the molecule of their own block, whether it stands above or below them.

Assays:
[1] = tested on: plasma proteins; assay: Plasma protein binding; format: in vitro ADME
Experimental: (§1) Quantum yield, molar extinction coefficient and serum protein binding experiments were performed according to previously published procedures (Hensbergen A. W. et al., Dyes and Pigments, 2018, 152, 19-28).

[2] = Photophysical characterization (molar extinction coefficient, quantum yield, brightness) in human serum albumin solution; format: physicochemical; details: for Brightness (HSA): multiplication of molar extinction coefficient and quantum yield
Experimental: as §1
Table 1 summarizes the photophysical properties of [^99mTc]PSMA-HSG, [^99mTc]mas3-Cy5(SO3)—EuK and [^99mTc]mas3-(SO3)Cy5(SO3)—EuK and of the different sulfonated Cy5-dyes used for their preparation. […] Because of this latter effect we analyzed the brightness (as multiplication of the molar extinction coefficient and the quantum yield) in humans serum albumin for all three hybrid PSMA agents included in this study (see Table 1). While we indeed see that increasing of the number of sulfonates on the cyanine dye has a positive effect on the brightness all remain within the same order of magnitude.
Because of this latter effect, we analyzed the brightness (as multiplication of the molar extinction coefficient and the quantum yield) in human serum albumin solution for all three hybrid PSMA agents included in this study (see Table 1). While we indeed see that increasing of the number of sulfonates on the cyanine dye has a positive effect on the brightness, all remain within the same order of magnitude.

[3] = molecular target: T1, PSMA (Homo sapiens, UniProt Q04609); assay: Competitive binding experiments (IC50) using PSMA-expressing LNCaP cells and ([125I]I-BA)EuK as standard radioligand
T1 construct: using PSMA-expressing LNCaP cells and ([^125I]I-BA)EuK as standard radioligand; endogenous in cells; host or cells: LNCaP cells
Experimental: Competitive binding experiments (IC50) were carried out in accordance with an established protocol ([…]. et al., Eur. J. Nuc. Mol. Med. Imaging Res., 2014, 4, 63) using PSMA-expressing LNCaP cells and ([^125I]I-BA)EuK as standard radioligand.

[4] = tested on: PC3-Pip xenografts in NSG mice; assay: In vivo and ex vivo fluorescence imaging of PC3-Pip xenografts in NSG mice; details: for detectable fluorescence signal: 6 h p.i., 0.1 nmol ligand
Experimental: FIG. 3: In vivo (A) and ex vivo (B) fluorescence imaging of PC3-Pip xenografts in NSG mice using PSMA-HSG (upper two rows), the reference Ac-mas3-Cy5(SO3)—EuK (middle two rows) and Ac-mas3-(SO3)Cy5(SO3)—EuK (lower two rows). Conditions were 2 h p.i. using a peptide dose of 1 nmol/mouse and 6 h p.i. using a peptide dose of 0.1 nmol/mouse, respectively (n=1 per condition). In vivo and ex vivo fluorescence imaging of intact tumors was performed using a clinical-grade fluorescence KARL STORZ Endoscope; fluorescence confocal imaging of 2 mm tumor slices (right) was performed using a Leica SP8 WLL microscope.
In vivo fluorescence imaging of PC3-Pip xenografts in NSG mice (2 h p.i. at a ligand dose of 1 nmol and 6 h p.i. at a ligand dose of 0.1 nmol, respectively; n=1 per compound and condition) was performed using a clinical-grade fluorescence laparoscopy set-up (KARL STORZ Endoskope GMBh & Co. KG). Cy5-based tumor imaging was performed using D-light P system and a prototype modified IMAGE 1 S light source with integrated Cy5 filter (both KARL STORZ Endoskope GMBh & Co. KG). Images were recorded using integrated KARL STORZ software and image processing was performed using in-house developed MATLAB software that provided a signal intensity-based representation of the signal-to-background ratio (SBR; Azargoshasb S. et al., Mol. Imaging Biol., 2022, https://doi.org/10.1007/s11307-022-01736-y; de Barros H. A. et al., Eur. Urol., 2022, 82, 97-105).
Fluorescence Confocal Imaging of Excised Tumor Specimens After in vivo imaging tumor specimens (N=1 per tracer) were excised and cut into 2 mm slices. Prior to imaging, slices were placed on a 35-mm culture dish containing a glass insert (MatTek Co.). Fluorescence confocal imaging was then performed using a Leica SP8 WLL microscope (Leica Microsystems). For assessment of tracer uptake Cy5 settings were used; λex=633 nm, λem=650-700 nm. Images were processed using accompanying LASX software (Leica Application Software Suite 4.8).

[5] = molecular target: T1, PSMA; details: LNCaP cells; reference compounds, assayed under identical conditions (literature cited in table title); # = free mas3-chelator; cited from earlier work
[6] = Plasma protein binding; format: in vitro ADME; details: plasma
Experimental: as §1

[7] = tested on: LNCaP xenograft bearing male NSG mice; assay: Small animal SPECT/CT blocking study with 2-PMPA co-injection; format: in vivo; details: 2-4 h p.i.; 1 nmol; co-injection of 1 μmol 2-PMPA
Experimental: FIG. 1: Small animal SPECT/CT study in LNCaP xenograft bearing male NSG mice at 2-4 h p.i. […] White arrows indicate the position of the LNCaP xenograft. SPECT/CT images were acquired using an Albira Si PET/SPECT/CT (Bruker Biospin Corporation, Woodbridge, CT, USA) instrument. […] For reconstruction, an ordered subset expectation-maximization algorithm (OSEM) with two iterations was used, and scatter correction was applied. For CT, the following parameters were used: 400 μA intensity and 35 kV voltage, 600 projections. Images were reconstructed using a filtered back-projection (FBP) algorithm with de-ringing correction. Fused representative SPECT/CT images were acquired using the PMOD software (PMOD technologies, version 3.709, Zurich, Switzerland).

[8] = Lipophilicity, modified shake-flask method; format: physicochemical
Experimental: The lipophilicity of [^99mTc]PSMA-HSG, [^99mTc]EuK(SO3)Cy5-mas3 and [^99mTc]EuK(SO3)Cy5(SO3)-mas3 was determined via a modified shake-flask method as described ([…]. et al., Eur. J. Nuc. Mol. Med. Imaging Res., 2014, 4, 63).

[9] = Biodistribution in LNCaP xenograft bearing NSG mice; format: in vivo; details: NSG, mouse, in vivo, iv, 0.1 nmol/animal, total radioactivity, Biodistribution: LNCaP tumor
Experimental: The biodistribution of [^99mTc]PSMA-HSG, [^99mTc]EuK(SO3)Cy5-mas3 and [^99mTc]EuK(SO3)Cy5(SO3)-mas3 was investigated in LNCaP xenograft bearing NSG mice. […] (0.1 nmol-cohort), respectively.
To assess the influence of the different ligand designs of [^99mTc]PSMA-HSG and [^99mTc]mas3-(SO3)Cy5(SO3)—EuK on in vivo PSMA-targeting and general pharmacokinetics, their in vivo biodistribution was investigated in LNCaP xenograft bearing NSG mice in two different experimental settings: • A) at 2 h p.i. using a ligand dose of 1 nmol/animal. These conditions were chosen to allow comparability of the data from this study (Table 3) with previous results in a different tumor model (Hensbergen, A. W. et al., J. Nucl. Med., 2020, 61, 234-241). Here, [^99mTc]mas3-Cy5(SO3)—EuK was additionally included as an internal reference to establish the “missing link” between studies. • B) at 6 h p.i. using a ligand dose of 0.1 nmol/animal (Table 4). The latter settings were adapted to a timeline and dosing with more similarity to the clinical situation (surgery at a later time point, microdosing principle). Of note, however, a ligand amount of 0.1 nmol/mouse (extrapolation: 280 nmol/70 kg patient) still exceeds the potentially applicable clinical dose (48 nmol/70 kg patient for a compound with a molecular weight of −2100 g/mol). Nevertheless, it represents a dose level at which significant competition effects between unlabeled precursor and radioligand for PSMA binding sites in tumor tissue are not probable (Eder A. C. et al., J. Nucl. Med., 2021, 62, 1461-1467; Kalidindi T. M. et al., Eur. J. Nucl. Med. Mol. Imaging, 2021, 48, 2642-2651).

[10] = tendency to associate with plasma proteins

T1 sequence (Q04609 whole entry): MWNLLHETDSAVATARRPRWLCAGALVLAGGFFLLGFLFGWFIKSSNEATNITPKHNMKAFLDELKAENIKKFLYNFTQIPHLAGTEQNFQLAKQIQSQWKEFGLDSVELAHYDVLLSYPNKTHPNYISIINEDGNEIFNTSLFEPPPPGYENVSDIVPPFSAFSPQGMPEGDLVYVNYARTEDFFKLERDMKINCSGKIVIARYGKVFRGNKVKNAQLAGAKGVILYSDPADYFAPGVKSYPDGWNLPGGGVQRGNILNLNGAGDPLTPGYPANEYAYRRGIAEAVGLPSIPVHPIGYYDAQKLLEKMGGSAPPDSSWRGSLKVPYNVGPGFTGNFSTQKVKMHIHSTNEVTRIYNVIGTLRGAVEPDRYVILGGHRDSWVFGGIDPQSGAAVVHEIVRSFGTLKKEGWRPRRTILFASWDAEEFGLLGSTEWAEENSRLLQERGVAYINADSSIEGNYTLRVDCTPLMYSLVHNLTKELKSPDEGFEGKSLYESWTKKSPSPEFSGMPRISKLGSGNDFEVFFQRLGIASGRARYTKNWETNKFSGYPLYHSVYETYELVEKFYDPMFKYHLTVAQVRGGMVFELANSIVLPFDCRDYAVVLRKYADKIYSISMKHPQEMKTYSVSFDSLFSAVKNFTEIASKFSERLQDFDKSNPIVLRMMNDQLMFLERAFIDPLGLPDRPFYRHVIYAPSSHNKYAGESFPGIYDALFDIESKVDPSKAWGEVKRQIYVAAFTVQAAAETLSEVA

reduction in affinity compared to the mono-sulfonated analog Ac-mas3-Cy5(SO3)-EuK [3]: almost eight-fold reduction
IC50 ([3]; LNCaP cells, free mas3-chelator, novel compounds): 0.131 ± 0.029 µM
Compound: CC(=O)SCC(=O)N[C@H](CO)C(=O)N[C@H](CO)C(=O)N[C@H](CO)C(=O)NCCCCCC(=O)NCCCCN1/C(=C/C=C/C=C/C2=[N+](CCCCCC(=O)NCCCC[C@H](NC(=O)N[C@@H](CCC(=O)O)C(=O)O)C(=O)O)c3ccc(S(=O)(=O)O)cc3C2(C)C)C(C)(C)c2cc(S(=O)(=O)[O-])ccc21 [Ac-mas3-(SO3)Cy5(SO3)-EuK]
tendency to associate with plasma proteins [1]: 77.9%
Quantum yield (HSA) [2]: 16%
Brightness (HSA) [2]: 38900 L/mol/cm
Molar extinction coefficient free dye (HSA) [2]: 243000 L/mol/cm
brightness compared to PSMA-HSG ([2]; text b242): fivefold lower brightness
fluorescence signal in the xenografts ([4]; 2 h p.i., ligand dose 1 nmol, in vivo and ex vivo): weakest signal
detectable fluorescence signal [4]: virtually not detectable

Compound: CC(=O)SCC(=O)N[C@H](CO)C(=O)N[C@H](CO)C(=O)N[C@H](CO)C(=O)NCCCCC(=O)NCCCCN1\C(=C/C=C/C=C/C2=[N+](CCCCCC(=O)NCCCC[C@H](NC(=O)N[C@@H](CCC(=O)O)C(=O)O)C(=O)O)c3ccc(S(=O)(=O)[O-])cc3C2(C)C)C(C)(C)c2ccccc21 [Ac-mas3-Cy5(SO3)-EuK]
IC50 [5]: 0.0178 ± 0.0029 µM
fraction unbound [6, 10]: 0.028
Quantum yield (HSA) [2]: 21%
Brightness (HSA) [2]: 33800 L/mol/cm
Molar extinction coefficient free dye (HSA) [2]: 161000 L/mol/cm
detectable fluorescence signal [4]: weak

Compound: C[N+]1=C(/C=C/C=C/C=C2/N(CCCCCC(=O)NCCCC[C@@H](NC(=O)[C@@H](CO)NC(=O)[C@@H](CO)NC(=O)[C@@H](CO)NC(=O)CS)C(=O)N[C@H](Cc3ccc(O)cc3)C(=O)N[C@H](Cc3ccc4ccccc4c3)C(=O)N[C@H](CCCCNC(=O)CCCCCCC(=O)NCCCC[C@H](NC(=O)N[C@@H](CCC(=O)O)C(=O)O)C(=O)O)C(=O)O)c3ccc(S(=O)(=O)O)cc3C2(C)C)C(C)(C)c2cc(S(=O)(=O)[O-])ccc21 [[^99mTc]PSMA-HSG, metal not drawn]
specificity of tracer uptake in tumor and PSMA-positive tissues [7]: PSMA-specific
fraction unbound ([6]; Plasma Protein Binding (%)): 0.007
fraction unbound [6, 10]: 0.006
logP [8]: -2.94
tissue uptake at 6 h [9]: 17.1 ± 2.9 %ID/g
